Target: Bovine brain tubulin (bovine) (UniProt Q6B856)
Sequence of UniProt Q6B856 (Q6B856 whole entry, looked up): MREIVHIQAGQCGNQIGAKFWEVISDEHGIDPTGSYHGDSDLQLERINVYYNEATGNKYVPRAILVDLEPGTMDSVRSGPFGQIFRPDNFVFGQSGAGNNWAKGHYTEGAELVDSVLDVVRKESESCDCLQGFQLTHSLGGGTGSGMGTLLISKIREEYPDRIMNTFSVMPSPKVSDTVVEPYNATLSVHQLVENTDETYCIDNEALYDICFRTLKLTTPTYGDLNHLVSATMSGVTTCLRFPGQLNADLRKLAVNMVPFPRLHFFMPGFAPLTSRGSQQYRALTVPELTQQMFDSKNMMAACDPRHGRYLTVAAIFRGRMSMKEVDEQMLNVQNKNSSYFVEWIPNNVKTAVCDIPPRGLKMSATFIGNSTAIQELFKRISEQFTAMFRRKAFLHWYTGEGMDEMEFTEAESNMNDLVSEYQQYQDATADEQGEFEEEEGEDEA

B1: wt human αB crystallin (natural protein)
chain: MDIAIHHPWIRRPFFPFHSPSRLFDQFFGEHLLESDLFPTSTSLSPFYLRPPSFLRAPSWFDTGLSEMRLEKDRFSVNLDVKHFSPEELKVKVLGDVIEVHGKHEERQDEHGFISREFHRKYRIPADVDPLTITSSLSSDGVLTVNGPRKQVSGPERTIPITREEKPAVTAAPKK
- decrease of thermal aggregation of tubulin: OD340 at 52°C for 60 min (Figure 4): 65%

From PMC1876262
